Patent publication US20190263918A1 (SHANGHAI JIAO TONG UNIVERSITY SCHOOL OF MEDICINE, published 2019)

B5: human FcγRIIB extracellular domain protein (receptor, UniProt P31994 43-217, looked up)
chain: TPAAPPKAVLKLEPQWINVLQEDSVTLTCRGTHSPESDSIQWFHNGNLIPTHTQPSYRFKANNNDSGEYTCQTGQTSLSDPVHLTVLSEWLVLQTPHLEFQEGETIVLRCHSWKDKPLVKVTFFQNGKSKKFSRSDPNFSIPQANHSHSGDYHCTGNIGYTLYSSKPVTITVQAP
notes: extracellular domain; SPR: His-tagged, immobilised; ELISA: biotinylated; also called hFcγRIIB; CD32b
B7: human FcγRIIA-R131 extracellular domain protein (receptor, UniProt P12318 34-217, looked up)
chain: QAAAPPKAVLKLEPPWINVLQEDSVTLTCQGARSPESDSIQWFHNGNLIPTHTQPSYRFKANNNDSGEYTCQTGQTSLSDPVHLTVLSEWLVLQTPHLEFQEGETIMLRCHSWKDKPLVKVTFFQNGKSQKFSRLDPTFSIPQANHSHSGDYHCTGNIGYTLFSSKPVTITVQVPSMGSSSPMG
notes: extracellular domain; SPR: His-tagged, immobilised; ELISA: biotinylated; also called hFcγRIIA-R131; CD32a

Tests used:
[1] = target: T1, recombinant murine CD40 protein (murine, UniProt P27512 24-193, limits assumed); experiment: ELISA: plate coated with recombinant murine CD40, antibody in gradient dilutions, HRP-labelled goat anti-human IgG-Fc secondary antibody, A650
T1 construct: Bought; coated on the ELISA plate; also called mouse CD40; mCD40
T1 sequence (looked up): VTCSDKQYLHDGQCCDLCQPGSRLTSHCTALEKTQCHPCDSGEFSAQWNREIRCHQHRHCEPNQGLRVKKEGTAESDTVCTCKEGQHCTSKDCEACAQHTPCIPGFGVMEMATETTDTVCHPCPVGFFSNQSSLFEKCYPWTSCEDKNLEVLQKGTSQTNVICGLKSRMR
Protocol: (§1) For assay on anti-human CD40 antibodies, an ELISA plate was coated with recombinant human CD40 protein (Novoprotein Scientific Inc.) overnight at atmospheric temperature, blocked using 1% BSA at room temperature for 2 h, and then washed three times with PBST (0.05% Tween 20 in PBS). To each well was added […] gradient dilutions of the human agonistic CD40 antibody. The plate was incubated at room temperature for 1 h and washed four times with PBST. Then, 100 ng/ml biotinylated secondary antibody against human Igκ light chain was added, incubated at room temperature for 1 h and washed 4 times with PBST. SAV-HRP at an appropriate concentration was added, incubated at room temperature for 1 h. Then, chromogenic substrate was added to react for 5 minutes, and optical absorbance was determined at 650 nm.
For assay on anti-murine CD40 antibodies, the process was the same, expect that the plate was coated with recombinant murine CD40 protein (Novoprotein Scientific Inc.) and HRP-labeled goat anti-human IgG-Fc antibody was used as the secondary antibody.

[2] = target: B7; experiment: SPR, Biacore T100, FcγR extracellular domain immobilised, 1:1 model
[3] = target: B5; experiment: as above
[4] = target: Fc fragment of heavy chain constant region G1 (hIgG1) (human, UniProt P0DOX5 234-449 = IgG part); experiment: as above
[5] = target: T2, human FcγRIIIA-F158 extracellular domain protein (human, UniProt P08637 17-208); experiment: SPR, Biacore T100, FcγR extracellular domain immobilised
T2 construct: extracellular domain; SPR: His-tagged, immobilised; also called hFcγRIIIA-F158; CD16a

[6] = target: T3, human FcγRI extracellular domain protein (human, UniProt P12314 16-292); experiment: SPR, Biacore T100, FcγR extracellular domain immobilised, 1:1 model
T3 construct: extracellular domain; also called hFcγRI; CD64

[7] = target: B7; experiment: ELISA: plate coated with the anti-human CD40 antibody, biotinylated human FcγRIIA-R131 extracellular domain, streptavidin-HRP, A650 [FcγRIIA-R131 panels]
Protocol: (§2) The ELISA plate was coated with 100 μL antibody at an appropriate concentration overnight, supernatant being discarded. The plate was blocked with 1% BSA in PBS for 2 hours, followed by washing with PBST (PBS with 0.05% Tween 20). Then, biotinylated FcγR extracellular domain protein (Sino Biologic Inc., Beijing China) at a concentration as appropriate was added and incubated at room temperature for 1 hour, supernatant being discarded, followed by PBST wash. Streptavidin-HRP (BD Biosciences) was added and incubated at room temperature for 1 hour for detection of biotin protein. After removal of supernatant, developing solution was added to react for 20-40 minutes, and absorbance was determined at 650 nm (A650).

[8] = target: T4, recombinant human CD40 protein (human, UniProt P25942 21-193); experiment: ELISA: plate coated with recombinant human CD40, antibody in gradient dilutions, biotinylated anti-human Igκ light chain secondary antibody, SAV-HRP, A650
T4 construct: Bought; coated on the ELISA plate; also called hCD40
Protocol: as §1

[9] = target: B7; experiment: ELISA: plate coated with the anti-human CD40 antibody, biotinylated human FcγRIIA-R131 extracellular domain, streptavidin-HRP, A650 [upper FcγRIIA-R131 panel]
Protocol: as §2

T4 sequence (P25942 21-193 limits assumed): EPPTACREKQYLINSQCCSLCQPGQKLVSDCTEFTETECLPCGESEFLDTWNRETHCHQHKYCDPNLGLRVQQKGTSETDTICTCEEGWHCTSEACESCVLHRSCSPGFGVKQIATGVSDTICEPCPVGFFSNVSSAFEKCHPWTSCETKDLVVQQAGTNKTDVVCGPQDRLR
T3 sequence (P12314 16-292): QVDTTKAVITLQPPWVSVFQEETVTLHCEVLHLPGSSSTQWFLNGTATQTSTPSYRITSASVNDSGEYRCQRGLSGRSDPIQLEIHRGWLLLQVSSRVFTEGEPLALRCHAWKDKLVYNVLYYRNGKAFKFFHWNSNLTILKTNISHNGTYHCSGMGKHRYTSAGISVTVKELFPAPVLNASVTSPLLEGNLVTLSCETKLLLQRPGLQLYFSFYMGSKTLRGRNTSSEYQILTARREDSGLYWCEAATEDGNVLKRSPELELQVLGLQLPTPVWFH
T2 sequence (P08637 17-208): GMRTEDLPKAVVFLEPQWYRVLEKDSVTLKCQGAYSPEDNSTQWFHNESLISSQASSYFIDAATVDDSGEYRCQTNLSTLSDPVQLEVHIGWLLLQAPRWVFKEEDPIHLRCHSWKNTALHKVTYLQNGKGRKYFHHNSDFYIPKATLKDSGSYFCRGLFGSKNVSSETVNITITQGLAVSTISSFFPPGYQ

B1: Anti-mCD40-hIgG1 (antibody)
heavy: not shown
light: DTVLTQSPALAVSPGERVTISCRASDSVSTLMHWYQQKPGQQPKLLIYLASHLESGVPARFSGSGSGTDFTLTIDPVEADDTATYYCQQSWNDPWTFGGGTKLELKRTVAAPSVFIFPPSDEQLKSGTASVVCLLNNFYPREAKVQWKVDNALQSGNSQESVTEQDSKDSTYSLSSTLTLSKADYEKHKVYACEVTHQGLSSPVTKSFNRGEC
notes: Chimeric anti-murine CD40 antibody, heavy chain constant region G1
EC50 (read off the curve) [1]: ~0.1 µg/mL

B2: Anti-mCD40-hIgG1(V11) (antibody)
heavy: EVQLVESDGGLVQPGRSLKLPCAASGFTFSDYYMAWVRQAPTKGLEWVASISYDGSSTYYRDSVKGRFTISRDNAKSTLYLQMDSLRSEDTATYYCGRHSSYFDYWGQGVMVTVSSATTKGPSVFPLAPSSKSTSGGTAALGCLVKDYFPEPVTVSWNSGALTSGVHTFPAVLQSSGLYSLSSVVTVPSSSLGTQTYICNVNHKPSNTKVDKRVEPKSCDKTHTCPPCPAPELLGDDSVFLFPPKPKDTLMISRTPEVTCVVVDVSDEDGEVKFNWYVDGVEVHNAKTKPREEQYNSTYRVVSVLTVLHQDWLNGKEYKCKVSNKALPRPIEKTISKAKGQPREPQVYTLPPSRDELTKNQVSLTCLVKGFYPSDIAVEWESNGQPENNYKTTPPVLDSDGSFFLYSKLTVDKSRWQQGNVFSCSVMHEALHNHYTQKSLSLSPGK
light: DTVLTQSPALAVSPGERVTISCRASDSVSTLMHWYQQKPGQQPKLLIYLASHLESGVPARFSGSGSGTDFTLTIDPVEADDTATYYCQQSWNDPWTFGGGTKLELKRTVAAPSVFIFPPSDEQLKSGTASVVCLLNNFYPREAKVQWKVDNALQSGNSQESVTEQDSKDSTYSLSSTLTLSKADYEKHKVYACEVTHQGLSSPVTKSFNRGEC
notes: Chimeric anti-murine CD40 antibody, heavy chain constant region V11(H1)
EC50 (read off the curve) [1]: ~0.1 µg/mL

B3: Anti-mCD40-hIgG2(V11) (antibody)
heavy: EVQLVESDGGLVQPGRSLKLPCAASGFTFSDYYMAWVRQAPTKGLEWVASISYDGSSTYYRDSVKGRFTISRDNAKSTLYLQMDSLRSEDTATYYCGRHSSYFDYWGQGVMVTVSSASTKGPSVFPLAPCSRSTSESTAALGCLVKDYFPEPVTVSWNSGALTSGVHTFPAVLQSSGLYSLSSVVTVPSSNFGTQTYTCNVDHKPSNTKVDKTVERKCCVECPPCPAPELLGDDSVFLFPPKPKDTLMISRTPEVTCVVVDVSDEDGEVKFNWYVDGVEVHNAKTKPREEQYNSTYRVVSVLTVLHQDWLNGKEYKCKVSNKALPRPIEKTISKAKGQPREPQVYTLPPSRDELTKNQVSLTCLVKGFYPSDIAVEWESNGQPENNYKTTPPVLDSDGSFFLYSKLTVDKSRWQQGNVFSCSVMHEALHNHYTQKSLSLSPGK
light: DTVLTQSPALAVSPGERVTISCRASDSVSTLMHWYQQKPGQQPKLLIYLASHLESGVPARFSGSGSGTDFTLTIDPVEADDTATYYCQQSWNDPWTFGGGTKLELKRTVAAPSVFIFPPSDEQLKSGTASVVCLLNNFYPREAKVQWKVDNALQSGNSQESVTEQDSKDSTYSLSSTLTLSKADYEKHKVYACEVTHQGLSSPVTKSFNRGEC
notes: Chimeric anti-murine CD40 antibody, heavy chain constant region V11(H2), i.e. JAC1; also called anti-murine CD40 antibody comprising JAC1
EC50 (read off the curve) [1]: ~0.1 µg/mL

B4: Fc fragment of heavy chain constant region G1-GASDALIE (hIgG1 G236A/S239D/A330L/I332E) (other)
chain: PELLAGPDVFLFPPKPKDTLMISRTPEVTCVVVDVSHEDPEVKFNWYVDGVEVHNAKTKPREEQYNSTYRVVSVLTVLHQDWLNGKEYKCKVSNKALPLPEEKTISKAKGQPREPQVYTLPPSRDELTKNQVSLTCLVKGFYPSDIAVEWESNGQPENNYKTTPPVLDSDGSFFLYSKLTVDKSRWQQGNVFSCSVMHEALHNHYTQKSLSLSPGK
Kd [2]: 63 nM | Kd [3]: 740 nM

B5
Kd [4]: 3000 nM

B6: Fc fragment of heavy chain constant region V9(H1) (hIgG1 G237D/P238D/P271G/A330R) (other)
chain: PELLGDDSVFLFPPKPKDTLMISRTPEVTCVVVDVSHEDGEVKFNWYVDGVEVHNAKTKPREEQYNSTYRVVSVLTVLHQDWLNGKEYKCKVSNKALPRPIEKTISKAKGQPREPQVYTLPPSRDELTKNQVSLTCLVKGFYPSDIAVEWESNGQPENNYKTTPPVLDSDGSFFLYSKLTVDKSRWQQGNVFSCSVMHEALHNHYTQKSLSLSPGK
binding result [5]: no binding | Kd [6]: 580 nM | Kd [2]: 4100 nM | Kd [3]: 94 nM

B7
Kd [4]: 1200 nM

B8: Anti-hCD40-hIgG1 (antibody)
heavy: not shown
light: DIQMTQSPSSVSASVGDRVTITCRASQGIYSWLAWYQQKPGKAPNLLIYTASTLQSGVPSRFSGSGSGTDFTLTISSLQPEDFATYYCQQANIFPLTFGGGTKVEIKRTVAAPSVFIFPPSDEQLKSGTASVVCLLNNFYPREAKVQWKVDNALQSGNSQESVTEQDSKDSTYSLSSTLTLSKADYEKHKVYACEVTHQGLSSPVTKSFNRGEC
notes: Human anti-human CD40 antibody with the light chain and VH of CP-870893; heavy chain constant region G1
binding result [7]: binds | EC50 (read off the curve) [8]: ~0.2 µg/mL

B9: Anti-hCD40-hIgG3 (antibody)
heavy: not shown
light: DIQMTQSPSSVSASVGDRVTITCRASQGIYSWLAWYQQKPGKAPNLLIYTASTLQSGVPSRFSGSGSGTDFTLTISSLQPEDFATYYCQQANIFPLTFGGGTKVEIKRTVAAPSVFIFPPSDEQLKSGTASVVCLLNNFYPREAKVQWKVDNALQSGNSQESVTEQDSKDSTYSLSSTLTLSKADYEKHKVYACEVTHQGLSSPVTKSFNRGEC
notes: Human anti-human CD40 antibody, heavy chain constant region G3
EC50 (read off the curve) [8]: ~0.1 µg/mL

B10: Anti-hCD40-hIgG2(V11) (antibody)
heavy: not shown
light: DIQMTQSPSSVSASVGDRVTITCRASQGIYSWLAWYQQKPGKAPNLLIYTASTLQSGVPSRFSGSGSGTDFTLTISSLQPEDFATYYCQQANIFPLTFGGGTKVEIKRTVAAPSVFIFPPSDEQLKSGTASVVCLLNNFYPREAKVQWKVDNALQSGNSQESVTEQDSKDSTYSLSSTLTLSKADYEKHKVYACEVTHQGLSSPVTKSFNRGEC
notes: Human anti-human CD40 antibody, heavy chain constant region V11(H2), i.e. JAC1; also called anti-human CD40 antibody comprising JAC1
binding result [9]: binds

B11: Anti-hCD40-hIgG2-NA (antibody)
heavy: not shown
light: DIQMTQSPSSVSASVGDRVTITCRASQGIYSWLAWYQQKPGKAPNLLIYTASTLQSGVPSRFSGSGSGTDFTLTISSLQPEDFATYYCQQANIFPLTFGGGTKVEIKRTVAAPSVFIFPPSDEQLKSGTASVVCLLNNFYPREAKVQWKVDNALQSGNSQESVTEQDSKDSTYSLSSTLTLSKADYEKHKVYACEVTHQGLSSPVTKSFNRGEC
notes: Human anti-human CD40 antibody, heavy chain constant region G2-NA (N297A)
binding result [7]: no binding
